Here are results for six molecules from patent publication US20140308285A1 (Amgen, published 2014).

Where two headings read alike, the source gives them in different places.

Assay [1] addresses T1, human CD3 (CD3 epsilon chain) on human T cells (human, UniProt P07766 22-207).
T1 construct: The assay used isolated human T cells, which carry CD3 as part of the TCR-CD3 complex; also called CD3ε
Description: FACS on isolated human T cells, FITC anti-human light chain secondary antibody. On the procedure: (§1) The heterodimeric bispecific antibodies described in Example 1 were produced in HEK 293 cells and were assayed by fluorescence activated cell sorting (FACS) for binding to T cells, which express CD3, and to a human ovarian cancer cell line, Ovcar-8, which expresses mesothelin. Briefly, the heterodimeric bispecific antibodies were incubated with about 50,000 Ovcar-8 cells or isolated human or cynomolgus monkey T cells at 4° C. for one hour. The cells were then washed and stained with a fluorescein isothiocyanate (FITC)-conjugated anti-human light chain secondary antibody and analyzed by flow cytometry. The relative binding was represented by the geometric mean of fluorescence intensity.

Assay [2] concerns the target T2, cynomolgus monkey CD3 (CD3 epsilon chain) on cynomolgus monkey T cells (cynomolgus monkey (Macaca fascicularis), UniProt Q95LI5 22-198).
T2 construct: The assay used isolated cynomolgus monkey T cells; also called cyno CD3
T2 chain: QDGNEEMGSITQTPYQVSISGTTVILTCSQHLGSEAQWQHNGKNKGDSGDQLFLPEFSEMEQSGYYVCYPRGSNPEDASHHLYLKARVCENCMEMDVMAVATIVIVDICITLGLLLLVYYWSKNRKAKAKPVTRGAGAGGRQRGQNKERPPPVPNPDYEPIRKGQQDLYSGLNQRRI
The assay can be described thus: FACS on isolated cynomolgus monkey T cells, FITC anti-human light chain secondary antibody. The procedure: as §1
(§2) Another set of constructs was made by methods similar to those used above using the same pair of anti-MSLN VH and VL regions as used in most constructs described above and a different pair of anti-CD3 VH and VL regions than used in most of the constructs described above. […] These constructs were tested using the assays described above, as well as the cynomolgus monkey T cell-dependent cell cytolysis (called “cyno TDCC”) assay described below.

Assay [3] deals with T2, cynomolgus monkey CD3 (CD3 epsilon …). Description: cell-based or functional assay.
The target in assay [4] is T1, human CD3 (CD3 epsilon chain) on human …. The assay can be described thus: FACS on isolated human T cells, FITC anti-human light chain secondary antibody. The procedure:
as §1, §2
This is another data set of the same source.

T1 sequence (P07766 22-207 limits assumed): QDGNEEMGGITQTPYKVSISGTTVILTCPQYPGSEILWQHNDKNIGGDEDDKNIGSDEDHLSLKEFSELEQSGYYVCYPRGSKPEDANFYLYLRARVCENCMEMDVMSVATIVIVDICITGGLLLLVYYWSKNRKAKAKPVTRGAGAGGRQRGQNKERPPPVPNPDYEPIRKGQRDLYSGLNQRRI

B1: P57216.9 (bispecific antibody)
chain 1: QVQLQESGPGLVKPSQTLSLTCTVSGGSINNNNYYWTWIRQHPGKGLEWIGYIYYSGSTFYNPSLKSRVTISVDTSKTQFSLKLSSVTAADTAVYYCAREDTMTGLDVWGQGTLVTVSSASTKGPEVQLVESGGGLVKPGVSLRLSCAASGFTFSRYSMNWVRQAPGKGLEWVSSISSSGTYIKYADSVKGRFTISRDNAKNSLNLQMNSLRAEDTAVYYCARDRDRYPLDYWGQGTLVTVSSASTKGPSVFPLAPCSRSTSESTAALGCLVKDYFPEPVTVSWNSGALTSGVHTFPAVLQSSGLYSLSSVVTVPSSNFGTQTYTCNVDHKPSNTKVDKTVGGGGSAAAVPRDLEVVAATPTSLLISWDAPHHGVAYYRITYGETGGNSPVQEFTVPGSKSTATISGLKPGVDYTINVYAVLAYPRGYPLSKPISINYRTDYKDDDDKGSSHHHHHH
chain 2: DIQMTQSPSSLSASVGDRVTITCRASQSINNYLNWYQQKPGKAPTLLIYAASSLQSGVPSRFSGSRSGTDFTLTISSLQPEDFAAYFCQQTYSNPTFGQGTKVEVKRTVAAPSSYELTQPPSVSVSPGQTARITCSGDALPKKYAYWYQQKSGQAPVLVIYEATKRPSGIPERFSGSSSGTMATLTLSGAQVEDEADYYCYSTDSTNYHWVFGGGTKLTVLGQPKAAPSVTLFPPSSEELQANKATLVCLISDFYPGAVTVAWKADSSPVKAGVETTTPSKQSNNKYAASSYLSLTPEQWKSHRSYSCQVTHEGSTVEKTVAPTECS
Turning to B1, the “FACS binding (geometric mean)” value in assay [1] came to 103.

B2: H69072.4 (bispecific antibody)
chain 1: DIQMTQSPSSVSASVGDRVTITCRASQGISSWLAWYQQKPGKAPKLLIYAASSLQSGVPSRFSGSGSGAAFTLTISSLQPEDFATYFCQQANSFPLTFAGGTKVDIKRGGGGSGGGGSQVQLQESGPGLVKPSQTLSLTCTVSGGSINNNNYYWTWIRQHPGKGLEWIGYIYYSGSTFYNPSLKSRVTISVDTSKTQFSLKLSSVTAADTAVYYCAREDTMTGLDVWGQGTTVTVSSASTKGPSVFPLAPCSRSTSESTAALGCLVKDYFPEPVTVSWNSGALTSGVHTFPAVLQSSGLYSLSSVVTVPSSNFGTQTYTCNVDHKPSNTKVDKTVGGGGSAAAVPRDLEVVAATPTSLLISWDAPHHGVAYYRITYGETGGNSPVQEFTVPGSKSTATISGLKPGVDYTINVYAVLAYPRGYPLSKPISINYRTDYKDDDDKGSSHHHHHH
chain 2: DIQMTQSPSSLSASVGDRVTITCRASQSINNYLNWYQQKPGKAPTLLIYAASSLQSGVPSRFSGSRSGTDFTLTISSLQPEDFAAYFCQQTYSNPTFGQGTKVEVKGGGGSGGGGSQVQLVESGGGVVQPGRSLRLSCAASGFTFSSYGMHWVRQAPGKGLEWVAVISYPGNTKYYADSVKGRFTISRDNSKNTLYLQMNSLRAEDTAVYFCARDQKEWRLIFDYWGQGTLVTVSSRTVAAPSVFIFPPSDEQLKSGTASVVCLLNNFYPREAKVQWKVDNALQSGNSQESVTEQDSKDSTYSLSSTLTLSKADYEKHKVYACEVTHQGLSSPVTKSFNRGEC
With B2, in assay [2], the “FACS binding (geometric mean)” value came out at 110. For the same molecule, in assay [3], the “Cyno TDCC EC50 (pM), Ovcar-8 cells with cynomolgus monkey T cells” value (“Cyno TDCC EC50 (pM), Ovcar-8 cells” below) worked out at 18.8 pM and the “Cyno TDCC Max killing (%), Ovcar-8 cells with cynomolgus monkey T cells” value (“Cyno TDCC Max killing (%), Ovcar-8 cells” below) was 91%. In addition, the “FACS binding (geometric mean)” value in assay [4] was 11.

B3: H69071.4 (bispecific antibody)
chain 1: QVQLQESGPGLVKPSQTLSLTCTVSGGSINNNNYYWTWIRQHPGKGLEWIGYIYYSGSTFYNPSLKSRVTISVDTSKTQFSLKLSSVTAADTAVYYCAREDTMTGLDVWGQGTLVTVSSGGGGSGGGGSDIQMTQSPSSVSASVGDRVTITCRASQGISSWLAWYQQKPGKAPKLLIYAASSLQSGVPSRFSGSGSGAAFTLTISSLQPEDFATYFCQQANSFPLTFAGGTKVDIKRASTKGPSVFPLAPCSRSTSESTAALGCLVKDYFPEPVTVSWNSGALTSGVHTFPAVLQSSGLYSLSSVVTVPSSNFGTQTYTCNVDHKPSNTKVDKTVGGGGSAAAVPRDLEVVAATPTSLLISWDAPHHGVAYYRITYGETGGNSPVQEFTVPGSKSTATISGLKPGVDYTINVYAVLAYPRGYPLSKPISINYRTDYKDDDDKGSSHHHHHH
chain 2: QVQLVESGGGVVQPGRSLRLSCAASGFTFSSYGMHWVRQAPGKGLEWVAVISYPGNTKYYADSVKGRFTISRDNSKNTLYLQMNSLRAEDTAVYFCARDQKEWRLIFDYWGQGTLVTVSSGGGGSGGGGSDIQMTQSPSSLSASVGDRVTITCRASQSINNYLNWYQQKPGKAPTLLIYAASSLQSGVPSRFSGSRSGTDFTLTISSLQPEDFAAYFCQQTYSNPTFGQGTKVEVKRTVAAPSVFIFPPSDEQLKSGTASVVCLLNNFYPREAKVQWKVDNALQSGNSQESVTEQDSKDSTYSLSSTLTLSKADYEKHKVYACEVTHQGLSSPVTKSFNRGEC
notes: also called H69071.2
B3: the “FACS binding (geometric mean)” value in assay [2] is 121. Further, in assay [3], the “Cyno TDCC EC50 (pM), Ovcar-8 cells” value amounted to 3.2 pM and the “Cyno TDCC Max killing (%), Ovcar-8 cells” value worked out at 88%. Further, the “FACS binding (geometric mean)” value in assay [4] came to 16.

B4: P69058.3 (bispecific antibody)
chain 1: QVQLQESGPGLVKPSQTLSLTCTVSGGSINNNNYYWTWIRQHPGKGLEWIGYIYYSGSTFYNPSLKSRVTISVDTSKTQFSLKLSSVTAADTAVYYCAREDTMTGLDVWGQGTLVTVSSGGGGSGGGGSSSYELTQPPSVSVSPGQTARITCSGDALPKKYAYWYQQKSGQAPVLVIYEATKRPSGIPERFSGSSSGTMATLTLSGAQVEDEADYYCYSTDSTNYHWVFGGGTKLTVLGASTKGPSVFPLAPCSRSTSESTAALGCLVKDYFPEPVTVSWNSGALTSGVHTFPAVLQSSGLYSLSSVVTVPSSNFGTQTYTCNVDHKPSNTKVDKTVGGGGSAAAVPRDLEVVAATPTSLLISWDAPHHGVAYYRITYGETGGNSPVQEFTVPGSKSTATISGLKPGVDYTINVYAVLAYPRGYPLSKPISINYRTDYKDDDDKGSSHHHHHH
chain 2: EVQLVESGGGLVKPGVSLRLSCAASGFTFSRYGMNWVRQAPGKGLEWVSSISSSGTYIKYADSVKGRFTISRDNAKNSLNLQMNSLRAEDTAVYYCARDRDRYPLDYWGQGTLVTVSSGGGGSGGGGSDIQMTQSPSSLSASVGDRVTITCRASQSINNYLNWYQQKPGKAPTLLIYAASSLQSGVPSRFSGSRSGTDFTLTISSLQPEDFAAYFCQQTYSNPTFGQGTKVEVKRTVAAPSVFIFPPSDEQLKSGTASVVCLLNNFYPREAKVQWKVDNALQSGNSQESVTEQDSKDSTYSLSSTLTLSKADYEKHKVYACEVTHQGLSSPVTKSFNRGEC
As to B4, the “FACS binding (geometric mean)” value in assay [1] came out at 290.

B5: H71365.2 (bispecific antibody)
chain 1: QVQLVESGGGVVQPGRSLRLSCAASGFTFSSYGMHWVRQAPGKGLEWVAVISYPGNTKYYADSVKGRFTISRDNSKNTLYLQMNSLRAEDTAVYFCARDQKEWRLIFDYWGQGTLVTVSSGGGGSGGGGSQVQLQESGPGLVKPSQTLSLTCTVSGGSINNNNYYWTWIRQHPGKGLEWIGYIYYSGSTFYNPSLKSRVTISVDTSKTQFSLKLSSVTAADTAVYYCAREDTMTGLDVWGQGTTVTVSSASTKGPSVFPLAPCSRSTSESTAALGCLVKDYFPEPVTVSWNSGALTSGVHTFPAVLQSSGLYSLSSVVTVPSSNFGTQTYTCNVDHKPSNTKVDKTVGGGGSAAAVPRDLEVVAATPTSLLISWDAPHHGVAYYRITYGETGGNSPVQEFTVPGSKSTATISGLKPGVDYTINVYAVLAYPRGYPLSKPISINYRTDYKDDDDKGSSHHHHHH
chain 2: DIQMTQSPSSVSASVGDRVTITCRASQGISSWLAWYQQKPGKAPKLLIYAASSLQSGVPSRFSGSGSGAAFTLTISSLQPEDFATYFCQQANSFPLTFAGGTKVDIKRGGGGSGGGGSDIQMTQSPSSLSASVGDRVTITCRASQSINNYLNWYQQKPGKAPTLLIYAASSLQSGVPSRFSGSRSGTDFTLTISSLQPEDFAAYFCQQTYSNPTFGQGTKVEVKRTVAAPSVFIFPPSDEQLKSGTASVVCLLNNFYPREAKVQWKVDNALQSGNSQESVTEQDSKDSTYSLSSTLTLSKADYEKHKVYACEVTHQGLSSPVTKSFNRGEC
notes: also called H71364.2
Take B5: in assay [2], the “FACS binding (geometric mean)” value turned out to be 276. Also, in assay [3], the “Cyno TDCC EC50 (pM), Ovcar-8 cells” value was 8.1 pM and the “Cyno TDCC Max killing (%), Ovcar-8 cells” value is 86%. For the same molecule, in assay [4], the “FACS binding (geometric mean)” value is 66.

B6: H69070.4 (bispecific antibody)
chain 1: QVQLVESGGGVVQPGRSLRLSCAASGFTFSSYGMHWVRQAPGKGLEWVAVISYPGNTKYYADSVKGRFTISRDNSKNTLYLQMNSLRAEDTAVYFCARDQKEWRLIFDYWGQGTLVTVSSASTKGPQVQLQESGPGLVKPSETLSLTCTVSGGSIISHYWSWIRQPPGKGLEWIGYIYYSGSTNYNPSLKSRVTISVDTSKNQFSLKLTSVTAADTAVYYCARDGWSAFDYWGQGTLVTVSSASTKGPSVFPLAPCSRSTSESTAALGCLVKDYFPEPVTVSWNSGALTSGVHTFPAVLQSSGLYSLSSVVTVPSSNFGTQTYTCNVDHKPSNTKVDKTVGGGGSAAAVPRDLEVVAATPTSLLISWDAPHHGVAYYRITYGETGGNSPVQEFTVPGSKSTATISGLKPGVDYTINVYAVLAYPRGYPLSKPISINYRTDYKDDDDKGSSHHHHHH
chain 2: DIQMTQSPSSVSASVGDRVTITCRASQGISSWLAWYQQKPGKAPKLLIYAASSLQSGVPSRFSGSGSGAAFTLTISSLQPEDFATYFCQQANSFPLTFAGGTKVDIKRTVAAPDIQMTQSPSSLSASVGDRVTITCRASQGIRNALGWYQQKPGKAPKRLIYAASSLQSGVPSRFSGSGSGTEFTLTISSLQPEDFATYYCLQHNSYPRTFGQGTKVEIRRTVAAPSVFIFPPSDEQLKSGTASVVCLLNNFYPREAKVQWKVDNALQSGNSQESVTEQDSKDSTYSLSSTLTLSKADYEKHKVYACEVTHQGLSSPVTKSFNRGEC
Take B6: the “FACS binding (geometric mean)” value in assay [2] was 127. Moreover, in assay [3], the “Cyno TDCC EC50 (pM), Ovcar-8 cells” value is 3 pM and the “Cyno TDCC Max killing (%), Ovcar-8 cells” value stood at 88%. For the same molecule, the “FACS binding (geometric mean)” value in assay [4] worked out at 9.
